Reference: the supplement of paper PMC9233669
Variants at the floor of the assay were thinned out.

How the values were obtained:
biotinyl-Leu-oxazolone = test: self-aminoacylation, catalytic enhancement (BLO) (fold over background); higher = more active; k-Seq, kA / k0A0; sequences stand for … in GGGAAUGGAUCCACAUCUACGAAUUC…UUCACUGCAGACUUGACGAAGCUG
Summary of the method: (§1)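 Each biotinyl-aminoacyl-oxazolone, at 2–1250 μM, was incubated with mutagenized RNA pools (0.43 μM) carrying a 21-nt variable region. The 50 μL reactions contained HEPES/NaCl/KCl/MgCl2/CaCl2 buffer with 5% acetonitrile at pH 6.9–7.0 and ran for 90 minutes at room temperature. After streptavidin capture, RNA was measured by qPCR in triplicate and by Illumina sequencing, and catalytic enhancement was calculated as median kA over the uncatalyzed rate from a pseudo-first-order fit of per-sequence fraction reacted.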

biotinyl-Trp-oxazolone = test: self-aminoacylation, catalytic enhancement (BWO) (fold over background); higher = more active; k-Seq, kA / k0A0; sequences stand for … in GGGAAUGGAUCCACAUCUACGAAUUC…UUCACUGCAGACUUGACGAAGCUG
Summary of the method: as §1

biotinyl-Val-oxazolone = test: self-aminoacylation, catalytic enhancement (BVO) (fold over background); higher = more active; k-Seq, kA / k0A0; sequences stand for … in GGGAAUGGAUCCACAUCUACGAAUUC…UUCACUGCAGACUUGACGAAGCUG
Summary of the method: as §1

biotinyl-Met-oxazolone = test: self-aminoacylation, catalytic enhancement (BMO) (fold over background); higher = more active; k-Seq, kA / k0A0; sequences stand for … in GGGAAUGGAUCCACAUCUACGAAUUC…UUCACUGCAGACUUGACGAAGCUG
Summary of the method: as §1

biotinyl-Ile-oxazolone = test: self-aminoacylation, catalytic enhancement (BIO) (fold over background); higher = more active; k-Seq, kA / k0A0; sequences stand for … in GGGAAUGGAUCCACAUCUACGAAUUC…UUCACUGCAGACUUGACGAAGCUG
Summary of the method: as §1

biotinyl-Phe-oxazolone = test: self-aminoacylation, catalytic enhancement (BFO) (fold over background); higher = more active; k-Seq, kA / k0A0; sequences stand for … in GGGAAUGGAUCCACAUCUACGAAUUC…UUCACUGCAGACUUGACGAAGCUG
Summary of the method: as §1

Sequence | self-aminoacylation (biotinyl-Leu-oxazolone) | self-aminoacylation (biotinyl-Trp-oxazolone) | self-aminoacylation (biotinyl-Val-oxazolone) | self-aminoacylation (biotinyl-Met-oxazolone) | self-aminoacylation (biotinyl-Ile-oxazolone) | self-aminoacylation (biotinyl-Phe-oxazolone)
CUACUUCAAACAACUGGUCUG [Fam1A.1 aminoacylation ribozyme variant] | 0.678 | 0.661 | 0.654 | 0.603 | 0.734 | 0.753
CUACUUCAAACAAGCAGUCUG [Fam1A.1 aminoacylation ribozyme variant] | 0.794 | 0.577 | 0.775 | 0.751 | 0.882 | 1.06
CUACUUCAAACAAGCGGUCUG [Fam1A.1 aminoacylation ribozyme variant] | 0.825 | 0.693 | 0.871 | 0.822 | 0.933 | 0.819
CUACUUCAAACAAUAGUUCUG [Fam1A.1 aminoacylation ribozyme variant] | 0.532 | 0.325 | 0.511 | 0.53 | 0.624 | 0.553
CUACUUCAAACAAUCAAUCUG [Fam1A.1 aminoacylation ribozyme variant] | 0.602 | 0.669 | 0.767 | 0.683 | 0.794 | 1.73
CUACUUCAAACAAUCAGUCUA [Fam1A.1 aminoacylation ribozyme variant] | 0.776 | 5.04 | 0.9 | 0.841 | 0.871 | 15.7
CUACUUCAAACAAUCAGUGUG [Fam1A.1 aminoacylation ribozyme variant] | 0.745 | 0.975 | 0.972 | 0.936 | 0.867 | 2.23
CUACUUCAAACAAUCAGUUUG [Fam1A.1 aminoacylation ribozyme variant] | 0.861 | 6.56 | 0.73 | 0.779 | 0.803 | 15.7
CUACUUCAAACAAUCCCUCUG [Fam1A.1 aminoacylation ribozyme variant] | 0.558 | 0.44 | 0.525 | 0.68 | 0.74 | 0.842
CUACUUCAAACAAUCCGUAUG [Fam1A.1 aminoacylation ribozyme variant] | 0.769 | 0.715 | 0.81 | 0.65 | 0.723 | 0.759
CUACUUCAAACAAUCCGUCUG [Fam1A.1 aminoacylation ribozyme variant] | 0.661 | 1.26 | 0.806 | 0.673 | 0.788 | 1.92
CUACUUCAAACAAUCCGUUUG [Fam1A.1 aminoacylation ribozyme variant] | 0.674 | 0.87 | 0.77 | 0.594 | 0.694 | 0.704
CUACUUCAAACAAUCGAUCUC [Fam1A.1 aminoacylation ribozyme variant] | 0.5 | 0.881 | 0.799 | 0.322 | 0.502 | 2.76
CUACUUCAAACAAUCGGUACG [Fam1A.1 aminoacylation ribozyme variant] | 0.425 | 0.839 | 0.577 | 0.396 | 0.461 | 2.05
CUACUUCAAACAAUCGGUAUA [Fam1A.1 aminoacylation ribozyme variant] | 0.661 | 0.725 | 0.688 | 0.607 | 0.772 | 1.24
CUACUUCAAACAAUCGGUAUU [Fam1A.1 aminoacylation ribozyme variant] | 0.74 | 0.759 | 0.828 | 0.852 | 0.854 | 1.15
CUACUUCAAACAAUCGGUUAG [Fam1A.1 aminoacylation ribozyme variant] | 0.493 | 1.46 | 0.614 | 0.591 | 0.706 | 2.89
CUACUUCAAACAAUCGGUUCG [Fam1A.1 aminoacylation ribozyme variant] | 0.63 | 0.98 | 0.767 | 0.615 | 0.687 | 2.97
CUACUUCAAACAAUCGGUUUG [Fam1A.1 aminoacylation ribozyme variant] | 1.54 | 23.9 | 1.1 | 1.08 | 1.07 | 43.4
CUACUUCAAACAAUCUGUAUG [Fam1A.1 aminoacylation ribozyme variant] | 0.607 | 0.471 | 0.73 | 0.647 | 0.642 | 0.672
CUACUUCAAACAAUGGGUGUG [Fam1A.1 aminoacylation ribozyme variant] | 1.34 | 0.947 | 1.08 | 1.32 | 1.29 | 0.967
CUACUUCAAACAAUUCGUCUG [Fam1A.1 aminoacylation ribozyme variant] | 0.628 | 0.602 | 0.859 | 0.722 | 0.827 | 0.738
CUACUUCAAACACUCGCUCUG [Fam1A.1 aminoacylation ribozyme variant] | 0.708 | 0.468 | 0.818 | 1.06 | 0.924 | 1.16
